Values of other authors, collected in US20050191360A1, “Particles for inhalation having rapid release properties” (Advanced Inhalation Research, Inc., priority 2004, published 2005).

Conditions: rat, in vivo

**Q.** Which “time at which the peak PTH level was reached” value does the source give for “PTH34: parathyroid hormone fragment given as dry powder formulation via intratracheal delivery (Patton et al.)” here?
**A.** about 15 minutes
